Source: paper PMC4597109 (Structure(London, England:1993), 2015)

Target: the molecule itself
Test: cryo-EM structure

B1: Barley stripe mosaic virus coat protein, in wild-type virions (wtBSMV) (natural protein)
chain: MPNVSLTAKGGGHYIEDQWDTQVVEAGVFDDWWVHVEAWNKFLDNLRGINFSVASSRSQVAEYLAALDRDLPADVDRRFAGARGQIGSPNYLPAPKFFRLDKRTIAELTRLSRLTDQPHNNRDIELNRAKRATTNPSPPAQAPSENLTLRDVQPLKDSALHYQYVLIDLQSARLPVYTRKTFERELALEWIIPDAEEA
binding result: binds
